What was measured:
[1] = tested on: dynamin-dynamin interactions; test: FLIM analysis of dynamin-dynamin interactions (self-assembly) in podocytes; type: cell-based, mouse; conditions: Table 1; donor GTPase-Alexa488, acceptor Hudy1-Alexa568; podocytes overexpressing the dynamin variant; in ps
In short: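 Dynamin overexpressed in podocytes by adenovirus. Fixed cells stained with equal amounts of anti-dynamin monoclonal antibodies conjugated to Alexa-488 (donor) or Alexa-568 (acceptor). Self-assembly scored by FRET-shortened Alexa-488 fluorescence lifetime (acceptor within ≈100 Å).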

CatL = test: Dynamin p40 fragment in kidney extracts after gene delivery and LPS injection; type: in vivo, mouse; conditions: LPS injected at the time of gene delivery
Chain of CatL (P06797 114-333 limits assumed): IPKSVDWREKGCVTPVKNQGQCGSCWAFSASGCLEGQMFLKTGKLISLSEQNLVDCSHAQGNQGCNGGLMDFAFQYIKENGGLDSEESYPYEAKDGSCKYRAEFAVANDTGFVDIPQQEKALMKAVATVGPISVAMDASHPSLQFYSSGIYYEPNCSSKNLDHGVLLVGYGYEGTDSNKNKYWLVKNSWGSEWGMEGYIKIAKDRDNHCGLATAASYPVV
Description: Next the cleavage pattern of dyn1 in kidney extracts following LPS injection was examined. Kidney cytosols were probed with antibody against the GTPase domain of dynamin, which detects p40. […] Western blotting also detected a dynamin fragment of ˜55 kD. As in cultured podocytes, the presence of this fragment was LPS- and CatL-independent (FIGS. 20B, lane 5 and 20C, lanes 1 and 2), further supporting the idea that it is generated by other proteases during tissue preparation.
Four mice kidneys were homogenized in buffer containing 20 mM HEPES pH 7.5, 100 mM NaCl, 1 mM MgCl2, 1 mM PMSF, proteinase inhibitors, calpain inhibitor (Calbiochem, San Diego, Calif.) and E-64d using dounce homogenizer. Subsequently, cytosol was centrifuged for 10 min at 7000 rpm. Proteins were solubilized by 1% Triton X, 1 h at 4° C., before it was spun at 50,000 rpm for 1 h.
CatL plasmids encoding short and long CatL (Goulet et al., Biol Chem 387, 1285-1293 (2004)), Dyn1 plasmids (pcDNA-driven) or p2.5 Podocin-driven (Moeller et al., Genesis 35, 39-42 (2003)) were introduced into mice (n>10, each construct) using the TransIT in vivo gene delivery system according to the manufacturer's instruction (Mirus Bio Corporation, Madison, Wis.). 10 and 24 h after gene delivery, proteinuria was assessed by Multistix 8 SG strips (Bayer Corporation, Elkhart, Ind.), and Bradford protein assay (Sigma, Saint Louis, Mo.). From the same urines the protein creatinine ratio was determined with Albuwell M and Creatinine Companion protein creatinine ELISA kits (Exocell Inc., Philadelphia, Pa.).

B1: dynR725A: dynamin mutant (SEQ ID NO.4) with impaired GTP hydrolysis capacity (protein, listed as Homo sapiens)
chain: MGNRGMEDLIPLVNRLQDAFSAIGQNADLDLPQIAVVGGQSAGKSSVLENFVGRDFLPRGSGIVTRRPLVLQLVNATTEYAEFLHCKGKKFTDFEEVRLEIEAETDRVTGTNKGISPVPINLRVYSPHVLNLTLVDLPGMTKVPVGDQPPDIEFQIRDMLMQFVTKENCLILAVSPANSDLANSDALKVAKEVDPQGQRTIGVITKLDLMDEGTDARDVLENKLLPLRRGYIGVVNRSQKDIDGKKDITAALAAERKFFLSHPSYRHLADRMGTPYLQKVLNQQLTNHIRDTLPGLRNKLQSQLLSIEKEVEEYKNFRPDDPARKTKALLQMVQQFAVDFEKRIEGSGDQIDTYELSGGARINRIFHERFPFELVKMEFDEKELRREISYAIKNIHGIRTGLFTPDMAFETIVKKQVKKIREPCLKCVDMVISELISTVRQCTKKLQQYPRLREEMERIVTTHIREREGRTKEQVMLLIDIELAYMNTNHEDFIGFANAQQRSNQMNKKKTSGNQDEILVIRKGWLTINNIGIMKGGSKEYWFVLTAENLSWYKDDEEKEKKYMLSVDNLKLRDVEKGFMSSKHIFALFNTEQRNVYKDYRQLELACETQEEVDSWKASFLRAGVYPERVGDKEKASETEENGSDSFMHSMDPQLERQVETIRNLVDSYMAIVNKTVRDLMPKTIMHLMINNTKEFIFSELLANLYSCGDQNTLMEESAEQAQRADEMLRMYHALKEALSIIGDINTTTVSTPMPPPVDDSWLQVQSVPAGRRSPTSSPTPQRRAPAVPPARPGSRGPAPGPPPAGSALGGAPPVPSRPGASPDPFGPPPQVPSRPNRAPPGVPSRSGQASPSRPESPRPPFDL
- Mean Lifetime (γ1) [1]: 2408 ± 128
- generation of p40 in kidney extracts, in words (CatL): did not result in generation of p40
